Like-named read-outs stand apart in the source and are kept apart here.
Tests used:
Experiment in all cases: fluorescence anisotropy
TFB2M-WT [1] = molecular target: T1, TFB2M-WT (human, UniProt Q9H5Q4 20-396)
T1 sequence: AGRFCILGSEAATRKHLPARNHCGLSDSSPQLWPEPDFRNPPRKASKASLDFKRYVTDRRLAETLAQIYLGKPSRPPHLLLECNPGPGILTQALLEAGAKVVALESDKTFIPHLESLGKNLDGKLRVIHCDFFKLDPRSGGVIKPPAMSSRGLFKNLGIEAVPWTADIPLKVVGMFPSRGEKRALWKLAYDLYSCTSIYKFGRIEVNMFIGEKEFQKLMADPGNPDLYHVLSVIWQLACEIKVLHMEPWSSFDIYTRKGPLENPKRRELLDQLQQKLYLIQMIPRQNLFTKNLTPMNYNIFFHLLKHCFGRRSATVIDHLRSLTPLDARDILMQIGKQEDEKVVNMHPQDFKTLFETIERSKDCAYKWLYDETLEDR

TFB2M-WT [2] = molecular target: T1, TFB2M-WT; remark: listed apart in the source
Mtf1-Δ20 [3] = molecular target: T2, Mtf1-Δ20 (Saccharomyces cerevisiae, UniProt P14908 1-321)
T2 sequence: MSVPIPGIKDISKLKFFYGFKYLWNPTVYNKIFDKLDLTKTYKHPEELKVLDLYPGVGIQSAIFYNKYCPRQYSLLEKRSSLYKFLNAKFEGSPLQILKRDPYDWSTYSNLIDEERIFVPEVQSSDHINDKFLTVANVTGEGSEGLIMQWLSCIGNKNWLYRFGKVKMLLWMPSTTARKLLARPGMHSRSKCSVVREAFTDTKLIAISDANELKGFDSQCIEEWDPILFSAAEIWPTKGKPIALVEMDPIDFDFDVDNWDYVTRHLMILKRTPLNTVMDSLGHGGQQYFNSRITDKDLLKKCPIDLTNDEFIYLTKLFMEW

TFB2M-WT [4] = molecular target: T1, TFB2M-WT; remark: listed apart in the source
Mtf1-Δ20 [5] = molecular target: T2, Mtf1-Δ20; remark: listed apart in the source
TFB2M-WT [6] = molecular target: T1, TFB2M-WT; remark: listed apart in the source
TFB2M-Δ3 = molecular target: T3, TFB2M-Δ3 (human, UniProt Q9H5Q4 20-393)
T3 sequence: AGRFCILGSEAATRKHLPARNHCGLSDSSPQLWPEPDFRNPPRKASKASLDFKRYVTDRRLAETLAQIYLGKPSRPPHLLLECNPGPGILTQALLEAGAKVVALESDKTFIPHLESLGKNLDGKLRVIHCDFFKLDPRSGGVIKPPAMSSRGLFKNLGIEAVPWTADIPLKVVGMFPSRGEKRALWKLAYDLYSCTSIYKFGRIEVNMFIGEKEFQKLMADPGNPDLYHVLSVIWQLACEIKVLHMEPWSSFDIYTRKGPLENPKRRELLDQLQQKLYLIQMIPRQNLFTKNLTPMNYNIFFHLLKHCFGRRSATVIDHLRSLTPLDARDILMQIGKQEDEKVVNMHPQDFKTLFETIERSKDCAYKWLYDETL

TFB2M-Δ13 = molecular target: T4, TFB2M-Δ13 (human, UniProt Q9H5Q4 20-383)
T4 sequence: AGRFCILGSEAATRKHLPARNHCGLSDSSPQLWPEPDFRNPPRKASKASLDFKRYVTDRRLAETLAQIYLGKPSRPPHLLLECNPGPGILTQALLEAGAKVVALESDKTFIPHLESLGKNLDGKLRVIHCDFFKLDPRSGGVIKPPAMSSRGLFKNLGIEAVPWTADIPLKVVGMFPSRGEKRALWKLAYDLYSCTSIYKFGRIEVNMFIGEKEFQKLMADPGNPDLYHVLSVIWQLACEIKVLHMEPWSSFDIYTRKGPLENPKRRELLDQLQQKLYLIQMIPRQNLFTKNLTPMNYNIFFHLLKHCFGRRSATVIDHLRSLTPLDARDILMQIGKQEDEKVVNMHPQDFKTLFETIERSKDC

TTTTTTTTTTTT (ssDNA) [dT12]
binding result (TFB2M-WT [1]): binds

B1: LSP duplex (dsDNA)
DNA 1: TACCGCCAAAAG
DNA 2: CTTTTGGCGGTA
binding signal (TFB2M-WT [2]): ~3 fold higher affinity than LSP NT

ATATAAGTAATA (ssDNA) [15S NT]
Kd (Mtf1-Δ20 [3]): ~870 nM | Kd (TFB2M-WT [4]): 130 nM | Kd (Mtf1-Δ20 [5]): 51 ± 2.8 nM

TACCGCCAAAAG (ssDNA) [LSP NT]
Kd (TFB2M-WT [6]): 169 ± 18 nM | Kd (TFB2M-Δ3): 92 ± 3.3 nM | Kd (TFB2M-Δ13): 46 ± 5.2 nM
